# Reference: the Immune Epitope Database (IEDB)
# What was measured:
# HLA-A*02:03 = assay: IEDB peptide-MHC binding, purified MHC/direct/fluorescence; filed as Kd, often an IC50 or EC50 that approximates it; ≥ and ≤ were set here for values at or beyond the usual limits of such assays
# HLA-A*03:01 = assay: as above
# HLA-A*68:02 = assay: as above
# HLA-A*02:19 = assay: as above
# HLA-B*57:01 [1] = assay: as above
# HLA-B*51:01 [2] = assay: as above
# HLA-B*18:01 [3] = assay: as above
# HLA-B*39:01 [4] = assay: as above
# HLA-A*26:01 [5] = assay: as above
# HLA-A*02:11 = assay: as above
# HLA-B*27:03 = assay: as above
# HLA-B*15:01 [6] = assay: as above
# HLA-A*02:16 = assay: as above
# HLA-A*02:01 [7] = assay: as above
# HLA-A*02:12 = assay: as above
# HLA-B*46:01 [8] = assay: as above
# HLA-A*29:02 = assay: as above
# HLA-A*24:03 = assay: as above
# HLA-B*57:01 [9] = assay: IEDB peptide-MHC binding, purified MHC/competitive/fluorescence; filed as Kd, often an IC50 or EC50 that approximates it; ≥ and ≤ were set here for values at or beyond the usual limits of such assays; conditions: source organism: Kurkino virus
# HLA-B*51:01 [10] = assay: as above; conditions: source organism: Kurkino virus
# HLA-B*18:01 [11] = assay: as above; conditions: source organism: Kurkino virus
# HLA-B*39:01 [12] = assay: as above; conditions: source organism: Kurkino virus
# HLA-A*26:01 [13] = assay: as above; conditions: source organism: Kurkino virus
# HLA-B*15:01 [14] = assay: as above; conditions: source organism: Kurkino virus
# HLA-A*69:01 = assay: as above; conditions: source organism: Kurkino virus
# HLA-A*02:01 [15] = assay: as above; conditions: source organism: Kurkino virus
# HLA-B*27:05 = assay: as above; conditions: source organism: Kurkino virus
# HLA-B*46:01 [16] = assay: as above; conditions: source organism: Kurkino virus
# HLA-A*23:01 = assay: IEDB peptide-MHC binding, purified MHC/direct/fluorescence; filed as Kd, often an IC50 or EC50 that approximates it; ≥ and ≤ were set here for values at or beyond the usual limits of such assays; conditions: source organism: Orthohantavirus tulaense
# [17] = source organism: Mycobacterium tuberculosis str. Haarlem
# [18] = source organism: Rickettsia bellii RML369-C
# [19] = source organism: Orthohantavirus tulaense
sequence,measurement,setting,value
LPVEYLQVP,Kd,HLA-A*02:03; [17],≥ 20 µM
same,Kd,HLA-A*03:01; [17],≥ 20 µM
same,Kd,HLA-A*68:02; [17],≥ 20 µM
same,Kd,HLA-A*02:19; [17],≥ 20 µM
same,Kd,HLA-B*57:01 [1]; [17],≥ 20 µM
same,Kd,HLA-B*51:01 [2]; [17],≥ 20 µM
same,Kd,HLA-B*18:01 [3]; [17],≥ 20 µM
same,Kd,HLA-B*39:01 [4]; [17],≥ 20 µM
same,Kd,HLA-A*26:01 [5]; [17],≥ 20 µM
same,Kd,HLA-A*02:11; [17],≥ 20 µM
same,Kd,HLA-B*27:03; [17],≥ 20 µM
same,Kd,HLA-B*15:01 [6]; [17],≥ 20 µM
same,Kd,HLA-A*02:16; [17],≥ 20 µM
same,Kd,HLA-A*02:01 [7]; [17],≥ 20 µM
same,Kd,HLA-A*02:12; [17],≥ 20 µM
same,Kd,HLA-B*46:01 [8]; [17],≥ 20 µM
NPLEIYQEI,Kd,HLA-A*02:03; [18],≥ 20 µM
same,Kd,HLA-A*03:01; [18],≥ 20 µM
same,Kd,HLA-A*02:19; [18],≥ 20 µM
same,Kd,HLA-B*57:01 [1]; [18],≥ 20 µM
same,Kd,HLA-A*29:02; [18],≥ 20 µM
same,Kd,HLA-B*51:01 [2]; [18],0.132 µM
same,Kd,HLA-B*18:01 [3]; [18],≥ 20 µM
same,Kd,HLA-B*39:01 [4]; [18],≥ 20 µM
same,Kd,HLA-A*26:01 [5]; [18],≥ 20 µM
same,Kd,HLA-A*02:11; [18],≥ 20 µM
same,Kd,HLA-B*27:03; [18],≥ 20 µM
same,Kd,HLA-B*15:01 [6]; [18],≥ 20 µM
same,Kd,HLA-A*02:16; [18],≥ 20 µM
same,Kd,HLA-A*02:01 [7]; [18],≥ 20 µM
same,Kd,HLA-A*24:03; [18],≥ 20 µM
same,Kd,HLA-A*02:12; [18],≥ 20 µM
same,Kd,HLA-B*46:01 [8]; [18],≥ 20 µM
RRAYSGKQY,Kd,HLA-B*57:01 [9],≥ 20 µM
same,Kd,HLA-B*51:01 [10],≥ 20 µM
same,Kd,HLA-B*18:01 [11],≥ 20 µM
same,Kd,HLA-B*39:01 [12],≥ 20 µM
same,Kd,HLA-A*26:01 [13],≥ 20 µM
same,Kd,HLA-B*15:01 [14],≥ 20 µM
same,Kd,HLA-A*69:01,≥ 20 µM
same,Kd,HLA-A*02:01 [15],≥ 20 µM
same,Kd,HLA-B*27:05,0.23 µM
same,Kd,HLA-B*46:01 [16],≥ 20 µM
same,Kd,HLA-A*02:03; [19],≥ 20 µM
same,Kd,HLA-A*03:01; [19],≥ 20 µM
same,Kd,HLA-A*68:02; [19],≥ 20 µM
same,Kd,HLA-A*02:19; [19],≥ 20 µM
same,Kd,HLA-A*29:02; [19],≥ 20 µM
same,Kd,HLA-A*02:11; [19],≥ 20 µM
same,Kd,HLA-A*02:16; [19],≥ 20 µM
same,Kd,HLA-A*23:01,≥ 20 µM
same,Kd,HLA-A*24:03; [19],≥ 20 µM
same,Kd,HLA-A*02:12; [19],≥ 20 µM
